Assay results published in PMC5291249, “Two p53 tetramers bind one consensus DNA response element”.

Columns and labels:
human p53 (hp53) [1] = target: T1, human p53 (hp53) (Homo sapiens, UniProt P04637 1-393); assay: EMSA (GA cross-linked SDS-PAGE); multiple tetramers; 25 mM Tris-HCl pH 7.5, 2 mM DTT, 100 mM NaCl, 1 mM ADP, 5 mM MgCl2 (or 20 mM HEPES pH 7.5, 10 mM ADP), 25 C, then 0.025% glutaraldehyde 20 min; 'weaker' refers; conditions: protein: recombinant; chain copies: 4; blunt
murine p53 (mp53) [2] = target: T2, murine p53 (mp53) (mouse, UniProt P02340 1-390); assay: as above; conditions: protein: recombinant; chain copies: 4; blunt
human p53 (hp53) [3] = target: T1, human p53 (hp53); assay: EMSA (GA cross-linked SDS-PAGE); 25 mM Tris-HCl pH 7.5, 2 mM DTT, 100 mM NaCl, 1 mM ADP, 5 mM MgCl2 (or 20 mM HEPES pH 7.5, 10 mM ADP), 25 C, then 0.025% glutaraldehyde 20 min; 'weaker' refers; conditions: protein: recombinant, chain copies: 4
murine p53 (mp53) [4] = target: T2, murine p53 (mp53); assay: as above; conditions: protein: recombinant, chain copies: 4
murine p53 (mp53) [5] = target: T2, murine p53 (mp53); assay: EMSA (GA cross-linked SDS-PAGE); among most efficient; 25 mM Tris-HCl pH 7.5, 2 mM DTT, 100 mM NaCl, 1 mM ADP, 5 mM MgCl2 (or 20 mM HEPES pH 7.5, 10 mM ADP), 25 C, then 0.025% glutaraldehyde 20 min; 'weaker' refers; conditions: protein: recombinant; chain copies: 4
human p53 (hp53) [6] = target: T1, human p53 (hp53); assay: EMSA (GA cross-linked SDS-PAGE); increased vs 2 bp spacer; 25 mM Tris-HCl pH 7.5, 2 mM DTT, 100 mM NaCl, 1 mM ADP, 5 mM MgCl2 (or 20 mM HEPES pH 7.5, 10 mM ADP), 25 C, then 0.025% glutaraldehyde 20 min; 'weaker' refers; conditions: protein: recombinant; chain copies: 4; blunt
murine p53 (mp53) [7] = target: T2, murine p53 (mp53); assay: as above; conditions: protein: recombinant; chain copies: 4; blunt
human p53 (hp53) [8] = target: T1, human p53 (hp53); assay: EMSA (GA cross-linked, IR dye); 25 mM Tris-HCl pH 7.5, 2 mM DTT, 100 mM NaCl, 1 mM ADP, 5 mM MgCl2 (or 20 mM HEPES pH 7.5, 10 mM ADP), 25 C, then 0.025% glutaraldehyde 20 min; 'weaker' refers; conditions: protein: recombinant; chain copies: 4; label: 5' IR800 both strands; blunt
murine p53 (mp53) [9] = target: T2, murine p53 (mp53); assay: as above; conditions: protein: recombinant; chain copies: 4; label: 5' IR800 both strands; blunt
mp53Δ30 = mp53Δ30 (mouse, UniProt P02340 1-360); assay: as above; conditions: protein: recombinant; chain copies: 4; label: 5' IR800 both strands; blunt
mp53 R273H = mp53 R273H (mouse, UniProt P02340 1-390, R270H); assay: as above; conditions: protein: recombinant, chain copies: 4

B1: DNA1 (dsDNA)
DNA 1: AGACATGCCTAGACATGCCT
DNA 2: AGGCATGTCTAGGCATGTCT
- binding result (human p53 (hp53) [1]): binds
- binding result (murine p53 (mp53) [2]): binds

B2: DNA6 (no spacer) (dsDNA)
DNA 1: ATGAAATAGACATGCCTAGACATGCCTGAATTAAT
DNA 2: ATTAATTCAGGCATGTCTAGGCATGTCTATTTCAT
- binding result (human p53 (hp53) [3]): binds
- binding result (murine p53 (mp53) [4]): binds

B3: DNA31 (1 bp spacer) (dsDNA)
DNA 1: AGCATTGGCTTTCTGGCCATCAGAGACATGCCTGAGACATGCCTAGCTCTGGCATAGAAGAGGCGCT
DNA 2: AGCGCCTCTTCTATGCCAGAGCTAGGCATGTCTCAGGCATGTCTCTGATGGCCAGAAAGCCAATGCT
- binding result (human p53 (hp53) [3]; blunt): binds
- binding result (murine p53 (mp53) [4]; blunt): binds

B4: bax RE (dsDNA)
DNA 1: GGGCTATATTTCACAAGTTAGAGACAAGCCTGGGCGTGGGCTATATT
DNA 2: AATATAGCCCACGCCCAGGCTTGTCTCTAACTTGTGAAATATAGCCC
- binding result (murine p53 (mp53) [5]): binds
- binding result (human p53 (hp53) [3]): binds

B5: RGC RE (dsDNA)
DNA 1: TGCCTTGCCTGGACTTGCCTGGCCTTGCCT
DNA 2: AGGCAAGGCCAGGCAAGTTCAGGCAAGGCA
- binding result (human p53 (hp53) [3]): binds

B6: DNA21 (dsDNA)
DNA 1: AGCATTGGCTTTCTGGCCATCAGAGACATGCCTAGACATGCCTAGCTCTGGCATAGAAGAGGCGCT
DNA 2: AGCGCCTCTTCTATGCCAGAGCTAGGCATGTCTAGGCATGTCTCTGATGGCCAGAAAGCCAATGCT
- binding result (human p53 (hp53) [3]; blunt): binds
- binding result (murine p53 (mp53) [2]): binds

B7: Tigar_NS (spacer removed) (dsDNA)
DNA 1: AGCATTGGCTTTCTGGCCATCAGAGACATGTCCAGACTTGTCTAGCTCTGGCATAGAAGAGGCGCT
DNA 2: AGCGCCTCTTCTATGCCAGAGCTAGACAAGTCTGGACATGTCTCTGATGGCCAGAAAGCCAATGCT
- binding result (human p53 (hp53) [6]): binds
- binding result (murine p53 (mp53) [7]): binds

B8: gadd45_1 (dsDNA)
DNA 1: ATGAAATGAACATGTCTGAGGCATGCTGAATTAA
DNA 2: TTAATTCAGCATGCCTCAGACATGTTCATTTCAT
- binding result (human p53 (hp53) [8]): binds
- binding result (murine p53 (mp53) [9]): binds

B9: gadd45_0 (dsDNA)
DNA 1: ATGAAATGAACATGTCTAGGCATGCTGAATTAAT
DNA 2: ATTAATTCAGCATGCCTAGACATGTTCATTTCAT
- binding result (mp53Δ30): binds
- binding result (human p53 (hp53) [8]): binds
- binding result (murine p53 (mp53) [9]): binds

B10: non-specific control DNA (20 bp) (dsDNA)
DNA 1: TCGATCCTCTATGAATTAT
DNA 2: ATAATTCATAGAGGATCGA
- binding result (mp53 R273H; label: 5' IR700 both strands): no binding

B11: p21 RE (dsDNA)
DNA 1: GAACATGTCCCAACATGTTG
DNA 2: CAACATGTTGGGACATGTTC
- binding result (murine p53 (mp53) [4]): binds

B12: MCK RE (dsDNA)
DNA 1: TGGCAAGCCTATGACATGGCCGGGGCCTGCCT
DNA 2: AGGCAGGCCCCGGCCATGTCATAGGCTTGCCA
- binding result (human p53 (hp53) [3]): binds

B13: gadd45 RE (Table 1) (dsDNA)
DNA 1: GAACATGTCTAAGCATGCTG
DNA 2: CAGCATGCTTAGACATGTTC
- binding result (human p53 (hp53) [3]): binds
- binding result (murine p53 (mp53) [4]): binds
- binding result (mp53 R273H): no binding
